The values below come from FireProtDB (doi:10.1016/j.jmb.2009.07.074).

To fix the notation:
B1: Cytochrome c', P00149 (parent)
chain: MKLRIATIAGLVVLGSGFAVAQTDVIAQRKAILKQMGEATKPIAAMLKGEAKFDQAVVQKSLAAIADDSKKLPALFPADSKTGGDTAALPKIWEDKAKFDDLFAKLAAAATAAQGTIKDEASLKANIGGVLGNCKSCHDDFRAKKS

The data set covers variants of B1. To be noted: Rhodopseudomonas palustris (strain ATCC BAA-98 / CGA009); pH 6.5; 25 °C; GdnHCl; CD; MES 20 mM; NaCl 40 mM; structure 1A7V; whole UniProt chain shown.

For the variant D24H, the denaturant m value amounted to 5.08 kcal/mol/M, the “denaturant midpoint (higher = more stable)” value (from here on “denaturant midpoint”) amounted to 1.46 M and the unfolding free energy was found to be 7.41 kcal/mol.

For K70H, the denaturant m value is 4.66 kcal/mol/M, the “denaturant midpoint” value is 1.45 M and the unfolding free energy came to 6.75 kcal/mol.

Consider K52H, for which the denaturant m value was 5.04 kcal/mol/M, the “denaturant midpoint” value was 1.47 M and the unfolding free energy is 7.41 kcal/mol.

D79H: the denaturant m value worked out at 4.8 kcal/mol/M, the “denaturant midpoint” value was 1.4 M and the unfolding free energy turned out to be 6.72 kcal/mol.

As for A112H, the denaturant m value was 5.75 kcal/mol/M, the “denaturant midpoint” value stood at 1.23 M and the unfolding free energy is 7.07 kcal/mol.

Take A87H: the denaturant m value was 4.88 kcal/mol/M, the “denaturant midpoint” value worked out at 1.39 M and the unfolding free energy was 6.79 kcal/mol.

Turning to K118H, the denaturant m value came to 5.28 kcal/mol/M, the “denaturant midpoint” value turned out to be 1.29 M and the unfolding free energy was determined as 6.8 kcal/mol.

For A125H, the denaturant m value turned out to be 5.59 kcal/mol/M, the “denaturant midpoint” value is 1.09 M and the unfolding free energy came to 6.08 kcal/mol.

Consider K34H, for which the denaturant m value was 4.91 kcal/mol/M, the “denaturant midpoint” value stood at 1.66 M and the unfolding free energy was determined as 8.17 kcal/mol.

Turning to K105H, the denaturant m value turned out to be 5.32 kcal/mol/M, the “denaturant midpoint” value was 1.11 M and the unfolding free energy is 5.89 kcal/mol.

On to E94H, for which the denaturant m value is 5.08 kcal/mol/M, the “denaturant midpoint” value came out at 1.13 M and the unfolding free energy came to 5.76 kcal/mol.
